Biological target: T1, SPEN RRM 2-3 (Homo sapiens) (UniProt Q96T58)
T1 sequence: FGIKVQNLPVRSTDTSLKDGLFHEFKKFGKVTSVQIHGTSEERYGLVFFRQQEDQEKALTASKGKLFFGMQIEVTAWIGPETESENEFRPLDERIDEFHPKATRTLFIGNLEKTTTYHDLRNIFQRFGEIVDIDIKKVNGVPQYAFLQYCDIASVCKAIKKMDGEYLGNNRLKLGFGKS
Test: EMSA
Settings: EMSA: 20 mM Tris-HCl pH 7.5, 150 mM KCl, 5 mM MgCl2, 10% glycerol, room temperature 30 min, 2 nM each labeled RNA (multiplexed), 4.5% TBE native gel

| Sequence | Kd |
| --- | --- |
| GUACCAGGUAUGUGAUGACAUCAGCCGACGCCUGGCACUGCUGCAGGAACAGUGGGCUGGAGGAAAGUUGUCAAUACCUGUAAAGAAGAGAAUGGCUCUACUGGUGCAAGAGCUUUCAAGCCACCGGUGGGACGCAGCAGAUGACAUCCACCGCUCCCUCAUGGUUGACCAUGUGACUGAGGUCAGUCAGUGGAUGGUAGGAGUUAAAAGAUUAAUUGCAGAAAAGAGGAGUCUGUUUUCAGAGGAGGCAGCCAAUGAAGAGAAAUCUGCAGCCACAGCUGAGAAGAACCAUACCAUACCAGGCUUCCAGCAGGCUUCAUAAUCCUCGGUUCCCCAGACUCACCGGACACCAUCUCCU [SRA] | 5.57 µM |
| GGGCUGCGGAUACCUGGUUUUAUUAUUUUUUCUUUGCCCAACGGGGCCGUGGAUACCUGCCUUUUAAUUCUUUUUUAUUCGCCCAUCGGGGCCGCGGAUACCUGCUUUUUAUUUUUUUUUCCUUAGCCCAUCGGGGUAUCGGAUACCUGCUGAUUCCCUUCCCCUCUGAACCCCCAACACUCUGGCCCAUCGGGGUGACGGAUAUCUGCUUUUUAAAAAUUUUCUUUUUUUGGCCCAUCGGGGCUUCGGAUACCUGCUUUUUUUUUUUUUAUUUUUCCUUGCCCAUCGGGGCCUCGGAUACCUGCUUUAAUUUUUGUUUUUCUGGCCCAUCGGGGCCGCGGAUACCUGCUUUGAUUUUUUUUUUUCAUCGCCCAUCGGUGCU [XIST A-full] | 1.05 µM |

Source: PMC10870365, “Dissection of protein and RNA regions required for SPEN binding to XIST A-repeat RNA”
